# Experimental data: patent publication US20170145113A1 (Genentech, published 2017)
# Biological target: T1, His-tagged human HtrA1 protease domain (human, UniProt Q92743 161-367)
# T1 construct: His-tagged protease domain; also called huHtrA1-PD-His; huHtrA1-PD
# Experiment: BIACORE SPR, single-cycle kinetics; Fab analyte over captured human HtrA1
# T1 sequence (Q92743 other isoform, or with tags, fused parts or gaps limits assumed): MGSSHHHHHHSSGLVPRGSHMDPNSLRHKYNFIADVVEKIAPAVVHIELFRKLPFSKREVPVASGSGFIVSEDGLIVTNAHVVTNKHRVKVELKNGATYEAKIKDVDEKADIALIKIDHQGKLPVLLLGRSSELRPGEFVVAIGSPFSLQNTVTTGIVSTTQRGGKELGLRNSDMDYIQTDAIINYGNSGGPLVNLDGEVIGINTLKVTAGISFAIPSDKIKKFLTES
Binder,Kd,koff,kon
"h15H6.v2 LC-N94E LC-P95 Fab (Fab, V domains shown, Produced as Fab; also called EP) VH: EVQLVQSGAEVKKPGASVKVSCKASGYTFTDSEMHWVRQAPGQGLEWIGGVDPETDGAAYNQKFKGRATITRDTSTSTAYLELSSLRSEDTAVYYCTRGYDYDYALDYWGQGTLVTVSS VL: DIQMTQSPSSLSASVGDRVTITCRASSSVNFIHWYQQKPGKAPKPLISATSNLASGVPSRFSGSGSGTDFTLTISSLQPEDFATYYCQQWSSEPWTFGQGTKVEIK",330 pM,0.00017 s⁻¹,520000 M⁻¹ s⁻¹
"h15H6.v2 LC-N94A LC-P95 Fab (Fab, V domains shown, Produced as Fab; also called AP) VH: EVQLVQSGAEVKKPGASVKVSCKASGYTFTDSEMHWVRQAPGQGLEWIGGVDPETDGAAYNQKFKGRATITRDTSTSTAYLELSSLRSEDTAVYYCTRGYDYDYALDYWGQGTLVTVSS VL: DIQMTQSPSSLSASVGDRVTITCRASSSVNFIHWYQQKPGKAPKPLISATSNLASGVPSRFSGSGSGTDFTLTISSLQPEDFATYYCQQWSSAPWTFGQGTKVEIK",310 pM,0.00014 s⁻¹,450000 M⁻¹ s⁻¹

# Biological target: T1, His-tagged human HtrA1 protease domain
# Experiment: SPR (BIACORE T200), huHtrA1-PD-His captured by anti-His, Fab injected
# Description: (§1) To determine the binding affinity of selected Fab variants for HtrA1, SPR measurement with a BIACORE™ T200 instrument was performed. Briefly, a series S sensor chip CM5 was activated with 1-EDC and NHS reagents according to the supplier's instructions, and anti-His antibody was coupled to achieve 200-300 response units (RU), then following by blocking un-reacted groups with 1 M ethanolamine. For kinetics measurements, approximately 5 nM of huHtrA1-PD-His was first injected at 10 μl/min flow rate to capture approximately 100 RU at 2 different flow cells (FC), except for FC1 (which served as a reference). Next, 5-fold serial dilutions of Fab in HBS-P buffer (0.01M HEPES pH 7.4, 0.15M NaCl, 0.005% surfactant P20) from low (0.8 nM) to high (50 nM) were injected (flow rate: 30 μl/min). The binding responses on HtrA1 were corrected by subtracting of RU from a blank flow cell. The sensorgram was recorded and subject to reference and buffer subtraction before evaluating by BIACORE® T200 Evaluation Software (version 2.0). Association rates (kₒₙ) and dissociation rates (koff) were calculated using a simple one-to-one Langmuir binding model. The equilibrium dissociation constant (KD) was calculated as the ratio of koff/kₒₙ.
Binder,Kd,koff,kon
"h15H6.v2 variant LC3 (LC-N31E) Fab (Fab, V domains shown, Fab-Flag tag fusion from 293T cells) VH: EVQLVQSGAEVKKPGASVKVSCKASGYTFTDSEMHWVRQAPGQGLEWIGGVDPETDGAAYNQKFKGRATITRDTSTSTAYLELSSLRSEDTAVYYCTRGYDYDYALDYWGQGTLVTVSS VL: DIQMTQSPSSLSASVGDRVTITCRASSSVEFIHWYQQKPGKAPKPLISATSNLASGVPSRFSGSGSGTDFTLTISSLQPEDFATYYCQQWSSNPWTFGQGTKVEIK",480 pM,0.00013 s⁻¹,270000 M⁻¹ s⁻¹
"h15H6.v2 variant LC7 (LC-S92Y) Fab (Fab, V domains shown, Fab-Flag tag fusion from 293T cells) VH: EVQLVQSGAEVKKPGASVKVSCKASGYTFTDSEMHWVRQAPGQGLEWIGGVDPETDGAAYNQKFKGRATITRDTSTSTAYLELSSLRSEDTAVYYCTRGYDYDYALDYWGQGTLVTVSS VL: DIQMTQSPSSLSASVGDRVTITCRASSSVNFIHWYQQKPGKAPKPLISATSNLASGVPSRFSGSGSGTDFTLTISSLQPEDFATYYCQQWYSNPWTFGQGTKVEIK",335 pM,0.000193 s⁻¹,578000 M⁻¹ s⁻¹

# Biological target: T1, His-tagged human HtrA1 protease domain
# Experiment: as above
# Remark: another data set of the same source
# Description: These combination mutants included both a variant light chain and a variant heavy chain. BIACORE™ kinetic analysis was performed (as described below in Section C) using the combination mutants.
# as §1
Binder,Kd,koff,kon
"h15H6.v2 variant LC3 (LC-N31E) Fab (Fab, V domains shown, Fab-Flag tag fusion from 293T cells) VH: EVQLVQSGAEVKKPGASVKVSCKASGYTFTDSEMHWVRQAPGQGLEWIGGVDPETDGAAYNQKFKGRATITRDTSTSTAYLELSSLRSEDTAVYYCTRGYDYDYALDYWGQGTLVTVSS VL: DIQMTQSPSSLSASVGDRVTITCRASSSVEFIHWYQQKPGKAPKPLISATSNLASGVPSRFSGSGSGTDFTLTISSLQPEDFATYYCQQWSSNPWTFGQGTKVEIK",905 pM,0.000115 s⁻¹,127000 M⁻¹ s⁻¹
"h15H6.v2 variant LC7 (LC-S92Y) Fab (Fab, V domains shown, Fab-Flag tag fusion from 293T cells) VH: EVQLVQSGAEVKKPGASVKVSCKASGYTFTDSEMHWVRQAPGQGLEWIGGVDPETDGAAYNQKFKGRATITRDTSTSTAYLELSSLRSEDTAVYYCTRGYDYDYALDYWGQGTLVTVSS VL: DIQMTQSPSSLSASVGDRVTITCRASSSVNFIHWYQQKPGKAPKPLISATSNLASGVPSRFSGSGSGTDFTLTISSLQPEDFATYYCQQWYSNPWTFGQGTKVEIK",1370 pM,0.000188 s⁻¹,137000 M⁻¹ s⁻¹
"combination mutant LC3.HC1 Fab (Fab, V domains shown, Fab) VH: EVQLVQSGAEVKKPGASVKVSCKASGYTFKDSEMHWVRQAPGQGLEWIGGVDPETDGAAYNQKFKGRATITRDTSTSTAYLELSSLRSEDTAVYYCTRGYDYDYALDYWGQGTLVTVSS VL: DIQMTQSPSSLSASVGDRVTITCRASSSVEFIHWYQQKPGKAPKPLISATSNLASGVPSRFSGSGSGTDFTLTISSLQPEDFATYYCQQWSSNPWTFGQGTKVEIK",88.9 pM,7.95e-05 s⁻¹,885000 M⁻¹ s⁻¹

# Biological target: T1, His-tagged human HtrA1 protease domain
# Experiment: BIACORE T200 SPR; Fab analyte over huHtrA1-PD-His captured by anti-His antibody
# Description: as §1
Binder,Kd,koff,kon
"APEG.LC347.HC23 (Fab, V domains shown, single member of the group m82) VH: EVQLVQSGAEVKKPGASVKVSCKASGYKFRDSEMHWVRQAPGQGLEWIGGVDPETEGAAYNQKFKGRATITRDTSTSTAYLELSSLRSEDTAVYYCTRGYDYDYALDYWGQGTLVTVSS VL: DIQMTQSPSSLSASVGDRVTITCRASSSVEFIHWYQQKPGKAPKPLISATSHLASGVPSRFSGSGSGTDFTLTISSLQPEDFATYYCQQWYSAPWTFGQGTKVEIK",163 pM,6.47e-05 s⁻¹,397000 M⁻¹ s⁻¹
"APEG.LC37.HC13 (Fab, V domains shown, single member of the group m82) VH: EVQLVQSGAEVKKPGASVKVSCKASGYKFKDSEMHWVRQAPGQGLEWIGGVDPETEGAAYNQKFKGRATITRDTSTSTAYLELSSLRSEDTAVYYCTRGYDYDYALDYWGQGTLVTVSS VL: DIQMTQSPSSLSASVGDRVTITCRASSSVEFIHWYQQKPGKAPKPLISATSNLASGVPSRFSGSGSGTDFTLTISSLQPEDFATYYCQQWYSAPWTFGQGTKVEIK",95 pM,4.09e-05 s⁻¹,431000 M⁻¹ s⁻¹
"APEG.LC3.HC1 (Fab, V domains shown, single member of the group m82) VH: EVQLVQSGAEVKKPGASVKVSCKASGYTFKDSEMHWVRQAPGQGLEWIGGVDPETEGAAYNQKFKGRATITRDTSTSTAYLELSSLRSEDTAVYYCTRGYDYDYALDYWGQGTLVTVSS VL: DIQMTQSPSSLSASVGDRVTITCRASSSVEFIHWYQQKPGKAPKPLISATSNLASGVPSRFSGSGSGTDFTLTISSLQPEDFATYYCQQWSSAPWTFGQGTKVEIK",106 pM,4.55e-05 s⁻¹,428000 M⁻¹ s⁻¹
"APEG.LC347.HC13 (Fab, V domains shown, single member of the group m82) VH: EVQLVQSGAEVKKPGASVKVSCKASGYKFKDSEMHWVRQAPGQGLEWIGGVDPETEGAAYNQKFKGRATITRDTSTSTAYLELSSLRSEDTAVYYCTRGYDYDYALDYWGQGTLVTVSS VL: DIQMTQSPSSLSASVGDRVTITCRASSSVEFIHWYQQKPGKAPKPLISATSHLASGVPSRFSGSGSGTDFTLTISSLQPEDFATYYCQQWYSAPWTFGQGTKVEIK",131 pM,4.88e-05 s⁻¹,371000 M⁻¹ s⁻¹
"combination mutant LC3.HC1 Fab (Fab, V domains shown, Fab) VH: EVQLVQSGAEVKKPGASVKVSCKASGYTFKDSEMHWVRQAPGQGLEWIGGVDPETDGAAYNQKFKGRATITRDTSTSTAYLELSSLRSEDTAVYYCTRGYDYDYALDYWGQGTLVTVSS VL: DIQMTQSPSSLSASVGDRVTITCRASSSVEFIHWYQQKPGKAPKPLISATSNLASGVPSRFSGSGSGTDFTLTISSLQPEDFATYYCQQWSSNPWTFGQGTKVEIK",89.8 pM,,

# More lines, now with the values ahead:
Kd,koff,kon,Binder
309 pM,6.6e-05 s⁻¹,213000 M⁻¹ s⁻¹,"APEG.LC7.HC2 (Fab, V domains shown) VH: EVQLVQSGAEVKKPGASVKVSCKASGYTFRDSEMHWVRQAPGQGLEWIGGVDPETEGAAYNQKFKGRATITRDTSTSTAYLELSSLRSEDTAVYYCTRGYDYDYALDYWGQGTLVTVSS VL: DIQMTQSPSSLSASVGDRVTITCRASSSVNFIHWYQQKPGKAPKPLISATSNLASGVPSRFSGSGSGTDFTLTISSLQPEDFATYYCQQWYSAPWTFGQGTKVEIK"
332 pM,7.93e-05 s⁻¹,239000 M⁻¹ s⁻¹,"APEG.LC7.HC3 (Fab, V domains shown) VH: EVQLVQSGAEVKKPGASVKVSCKASGYKFTDSEMHWVRQAPGQGLEWIGGVDPETEGAAYNQKFKGRATITRDTSTSTAYLELSSLRSEDTAVYYCTRGYDYDYALDYWGQGTLVTVSS VL: DIQMTQSPSSLSASVGDRVTITCRASSSVNFIHWYQQKPGKAPKPLISATSNLASGVPSRFSGSGSGTDFTLTISSLQPEDFATYYCQQWYSAPWTFGQGTKVEIK"
137 pM,2.75e-05 s⁻¹,200000 M⁻¹ s⁻¹,"APEG.LC7.HC1 (Fab, V domains shown) VH: EVQLVQSGAEVKKPGASVKVSCKASGYTFKDSEMHWVRQAPGQGLEWIGGVDPETEGAAYNQKFKGRATITRDTSTSTAYLELSSLRSEDTAVYYCTRGYDYDYALDYWGQGTLVTVSS VL: DIQMTQSPSSLSASVGDRVTITCRASSSVNFIHWYQQKPGKAPKPLISATSNLASGVPSRFSGSGSGTDFTLTISSLQPEDFATYYCQQWYSAPWTFGQGTKVEIK"
146 pM,6.41e-05 s⁻¹,438000 M⁻¹ s⁻¹,"APEG.LC37.HC23 (Fab, V domains shown, single member of the group m82) VH: EVQLVQSGAEVKKPGASVKVSCKASGYKFRDSEMHWVRQAPGQGLEWIGGVDPETEGAAYNQKFKGRATITRDTSTSTAYLELSSLRSEDTAVYYCTRGYDYDYALDYWGQGTLVTVSS VL: DIQMTQSPSSLSASVGDRVTITCRASSSVEFIHWYQQKPGKAPKPLISATSNLASGVPSRFSGSGSGTDFTLTISSLQPEDFATYYCQQWYSAPWTFGQGTKVEIK"
117 pM,4.08e-05 s⁻¹,350000 M⁻¹ s⁻¹,"APEG.LC3.HC2 (Fab, V domains shown) VH: EVQLVQSGAEVKKPGASVKVSCKASGYTFRDSEMHWVRQAPGQGLEWIGGVDPETEGAAYNQKFKGRATITRDTSTSTAYLELSSLRSEDTAVYYCTRGYDYDYALDYWGQGTLVTVSS VL: DIQMTQSPSSLSASVGDRVTITCRASSSVEFIHWYQQKPGKAPKPLISATSNLASGVPSRFSGSGSGTDFTLTISSLQPEDFATYYCQQWSSAPWTFGQGTKVEIK"

# Biological target: T1, His-tagged human HtrA1 protease domain
# Experiment: BIACORE SPR, single-cycle kinetics; Fab analyte over captured human HtrA1
# Remark: another data set of the same source
Binder,Kd,koff,kon
"AG (Fab, V domains shown, single member of the group m42; also called h15H6.v2 HC-D55A HC-G56 Fab) VH: EVQLVQSGAEVKKPGASVKVSCKASGYTFTDSEMHWVRQAPGQGLEWIGGVDPETAGAAYNQKFKGRATITRDTSTSTAYLELSSLRSEDTAVYYCTRGYDYDYALDYWGQGTLVTVSS VL: DIQMTQSPSSLSASVGDRVTITCRASSSVNFIHWYQQKPGKAPKPLISATSNLASGVPSRFSGSGSGTDFTLTISSLQPEDFATYYCQQWSSNPWTFGQGTKVEIK",760 pM,0.00035 s⁻¹,460000 M⁻¹ s⁻¹
"DA (Fab, V domains shown, single member of the group m42; also called h15H6.v2 HC-D55 HC-G56A Fab) VH: EVQLVQSGAEVKKPGASVKVSCKASGYTFTDSEMHWVRQAPGQGLEWIGGVDPETDAAAYNQKFKGRATITRDTSTSTAYLELSSLRSEDTAVYYCTRGYDYDYALDYWGQGTLVTVSS VL: DIQMTQSPSSLSASVGDRVTITCRASSSVNFIHWYQQKPGKAPKPLISATSNLASGVPSRFSGSGSGTDFTLTISSLQPEDFATYYCQQWSSNPWTFGQGTKVEIK",840 pM,0.00027 s⁻¹,320000 M⁻¹ s⁻¹
